Assay results reported in patent US20230011916A1 (BEIGENE, published 2023).

T1: full-length human OX40 expressed on HuT78 cells (HuT78/OX40) (human, UniProt P43489 29-277)
T1 sequence: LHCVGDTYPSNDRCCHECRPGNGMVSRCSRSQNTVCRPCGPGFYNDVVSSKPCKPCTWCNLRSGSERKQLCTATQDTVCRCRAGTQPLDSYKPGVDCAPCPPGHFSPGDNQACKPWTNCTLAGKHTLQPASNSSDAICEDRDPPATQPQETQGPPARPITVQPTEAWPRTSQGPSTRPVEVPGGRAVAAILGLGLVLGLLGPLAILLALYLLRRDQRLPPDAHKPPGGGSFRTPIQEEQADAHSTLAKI

T2: recombinant OX40 protein with a His tag (Cat: 10481-H08H, Sino Biological) (UniProt P43489 29-216)
T2 construct: Bought protein; also called OX40-His (bought); not shown: His tag
T2 sequence (looked up): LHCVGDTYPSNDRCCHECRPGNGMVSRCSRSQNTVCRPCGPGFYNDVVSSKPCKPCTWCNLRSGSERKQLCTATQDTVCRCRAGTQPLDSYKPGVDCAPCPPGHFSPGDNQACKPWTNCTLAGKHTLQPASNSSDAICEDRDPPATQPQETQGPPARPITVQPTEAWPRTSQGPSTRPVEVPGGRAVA

T3: human OX40/IgG1 fusion H153A (human, UniProt P43489 29-216)
T3 construct: not shown: Fc domain of human IgG1 wild type heavy chain
T3 chain: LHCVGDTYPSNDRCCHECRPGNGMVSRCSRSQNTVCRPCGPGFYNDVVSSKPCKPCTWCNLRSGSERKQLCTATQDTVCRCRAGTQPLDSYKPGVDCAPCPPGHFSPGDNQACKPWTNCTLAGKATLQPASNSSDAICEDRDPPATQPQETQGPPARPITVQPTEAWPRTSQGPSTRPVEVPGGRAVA


Columns and labels:
[1] = molecular target: T1, full-length human OX40 expressed on …; assay: FACS; cells not named on the sheet, HuT78/OX40 cells as in Example 5
[2] = molecular target: T2, recombinant OX40 protein with a His tag …; assay: Biacore (SPR); antigen not named on the sheet, OX40-His as in Example 4
[3] = molecular target: T1, full-length human OX40 expressed on …; assay: FACS; against 445-2
[4] = molecular target: T3, human OX40/IgG1 fusion H153A; assay: SPR, BIAcore 8K, OX40/IgG1 mutant immobilized, 445-3 Fab flowed
Protocol: Briefly, OX40 mutants and wild type OX40 were immobilized on a CM5 biosensor chip (Cat: BR100530, GE Life Sciences) using EDC and NHS. […] The changes in surface plasmon resonance signals were analyzed to calculate the association rates (ka) and dissociation rates (kd) by using the one-to-one Langmuir binding model (BIA Evaluation Software, GE Life Sciences). The equilibrium dissociation constant (KD) was calculated as the ratio kd/ka. The KD shift fold of mutant was calculated as the ratio Mutant KD/WT KD.

[5] = molecular target: T2, recombinant OX40 protein with a His tag …; assay: Biacore; against 445-2

Row | EC50 [1] [µg/mL] | Top(MFI) [1] [MFI] | Kd [2] [nM] | koff [2] [s⁻¹] | kon [2] [M⁻¹ s⁻¹] | fold increase to the EC50 over 445-2 [3] [fold] | binding result [4] | fold increase to the KD over 445-2 [5] [fold] | Binder
1 | 0.66 | 750 | 12.9 | 0.00574 | 444000 | 1.7 | – | – | 445-2 with K28T in the heavy chain and S24R in the light chain (antibody, human IgG1, V domains shown) VH: QVQLVQSGAEVKKPGSSVKVSCKASGYTFTSYIIHWVRQAPGQGLEWMGYINPYNEGTRYAQKFQGRVTLTADKSTSTAYMELSSLRSEDTAVYYCARGYYGSSYAMDYWGQGTTVTVSS VL: DIQMTQSPSSLSASVGDRVTITCRASQGISNYLNWYQQKPGKAIKLLIYDASTLYSGVPSRFSGSGSGTDFTLTISSLQPEDFATYYCQQYSKLPYTFGGGTKVEIK
2 | – | – | – | – | – | – | no binding | – | 445-3 Fab (Fab, V domains shown) VH: QVQLVQSGAEVKKPGSSVKVSCKASGYKFTSYIIHWVRQAPGQGLEWMGYINPYNEGTRYNQKFQGRVTLTADKSTSTAYMELSSLRSEDTAVYYCARGYYGSSYAMDYWGQGTTVTVSS VL: DIQMTQSPSSLSASVGDRVTITCRASQGISNYLNWYQQKPDGAIKLLIYDASTLYSGVPSRFSGSGSGTDFTLTISSLQPEDFATYYCQQYSKLPYTFGGGTKVEIK
3 | 0.755 | 630 | 21.5 | 0.00135 | 62500 | – | – | 1.7 | 445-2 with Y27G in the heavy chain and S24R in the light chain (antibody, human IgG1, V domains shown) VH: QVQLVQSGAEVKKPGSSVKVSCKASGGKFTSYIIHWVRQAPGQGLEWMGYINPYNEGTRYAQKFQGRVTLTADKSTSTAYMELSSLRSEDTAVYYCARGYYGSSYAMDYWGQGTTVTVSS VL: DIQMTQSPSSLSASVGDRVTITCRASQGISNYLNWYQQKPGKAIKLLIYDASTLYSGVPSRFSGSGSGTDFTLTISSLQPEDFATYYCQQYSKLPYTFGGGTKVEIK
